According to patent publication US20220389118A1 (Chugai, published 2022):
Changes are numbered by the printed parent chain.

T1: human FcγRIIa type R (allotype R131) extracellular domain with C-terminal His tag (human, UniProt P12318 34-217)
T1 construct: extracellular domain; also called FcγRIIaR; FcγRIIa R type; not shown: His tag at the C terminus
T1 sequence (looked up): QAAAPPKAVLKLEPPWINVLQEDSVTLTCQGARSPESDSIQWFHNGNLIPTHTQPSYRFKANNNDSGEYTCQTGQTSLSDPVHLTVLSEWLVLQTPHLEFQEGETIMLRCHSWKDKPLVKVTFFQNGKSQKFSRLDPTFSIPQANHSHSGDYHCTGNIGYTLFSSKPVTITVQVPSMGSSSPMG

T2: human FcγRIIa type R extracellular domain with C-terminal His tag (human, UniProt P12318 34-217)
T2 construct: extracellular domain; also called FcγRIIaR; FcγRIIa(R)
T2 sequence (looked up): T1 sequence (looked up)

T3: human FcγRIIa type H extracellular domain with C-terminal His tag (human, UniProt P12318 34-217)
T3 construct: extracellular domain; also called FcγRIIaH; FcγRIIa(H)
T3 sequence (looked up): T1 sequence (looked up) with R134H

T4: human FcγRIIb extracellular domain with C-terminal His tag (human, UniProt P31994 43-217)
T4 construct: extracellular domain
T4 sequence (looked up): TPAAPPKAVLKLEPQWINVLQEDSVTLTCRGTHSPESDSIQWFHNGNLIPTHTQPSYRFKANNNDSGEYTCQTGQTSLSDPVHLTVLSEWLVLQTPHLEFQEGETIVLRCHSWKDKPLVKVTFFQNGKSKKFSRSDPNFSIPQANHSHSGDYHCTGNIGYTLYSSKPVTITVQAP

T5: human FcγRIIa type R extracellular domain with C-terminal His tag (human, UniProt P12318 34-217)
T5 construct: extracellular domain; also called FcγRIIaR; FcgRIIaR
T5 sequence (looked up): T1 sequence (looked up)

T6: human FcγRIIb extracellular domain with C-terminal His tag (human, UniProt P31994 43-217)
T6 construct: extracellular domain; also called FcgRIIb
T6 sequence (looked up): T4 sequence (looked up)

B1: IL6R-BP183/IL6R-L (antibody, human IgG1, kappa)
heavy: QVQLQESGPGLVKPSETLSLTCAVSGHSISHDHAWSWVRQPPGEGLEWIGFISYSGITNYNPSLQGRVTISRDNSKNTLYLQMNSLRAEDTAVYYCARSLARTTAMDYWGEGTLVTVSSASTKGPSVFPLAPSSKSTSGGTAALGCLVKDYFPEPVTVSWNSGALTSGVHTFPAVLQSSGLYSLSSVVTVPSSSLGTQTYICNVNHKPSNTKVDKKVEPKSCDKTHTCPPCPAPDYLGGDSVFLFPPKPKDTLMISRTPEVTCVVVDVSHEDGEVKFNWYVDGVEVHNAKTKPREEQYNSTYRVVSVLTVLHQDWLNGKEYKCKVSNAALPKPIEKTISKAKGQPREPQVYTLPPSRDELTKNQVSLTCLVKGFYPSDIAVEWESNGQPENNYKTTPPVLDSDGSFFLYSKLTVDKSRWQQGNVFSCSVMHEALHNHYTQESLSLSP
light: not shown
notes: copies: 2 + 2
B2: IL6R-BP488/IL6R-L (antibody, human IgG1, kappa)
heavy: B1 heavy with Y236L, G239D, V266I, S269A, H270E, Y298D, A328K, K332R
light: not shown
notes: copies: 2 + 2
B3: IL6R-BP102/IL6R-L (antibody, human IgG1, kappa)
heavy: B1 heavy with D235E, Y236L, S269Q, G273P, A328K, K332A
light: not shown
notes: IgG1 type
B4: IL6R-2B171/IL6R-L (antibody, human IgG1, kappa)
heavy: B1 heavy with D235E, Y236L, G273P, V325L, A328K, K332A
light: not shown
notes: IgG1 type
B5: IL6R-BP107/IL6R-L (antibody, human IgG1, kappa)
heavy: B1 heavy with D235E, Y236L, H270E, G273P, A328K, K332A
light: not shown
notes: IgG1 type
B6: IL6R-BP210/IL6R-L (antibody, human IgG1, kappa)
heavy: B1 heavy with D235E, Y236L, G239D, H270D, A328K, K332R
light: not shown
notes: copies: 2 + 2
B7: IL6R-BP186/IL6R-L (antibody, human IgG1, kappa)
heavy: B1 heavy with G239D, Y298D
light: not shown
notes: copies: 2 + 2
B8: IL6R-BP103/IL6R-L (antibody, human IgG1, kappa)
heavy: B1 heavy with D235E, Y236L, S269V, G273P, A328K, K332A
light: not shown
notes: IgG1 type
B9: IL6R-BP199/IL6R-L (antibody, human IgG1, kappa)
heavy: B1 heavy with Y236L, G273P, A328D, K332R
light: not shown
notes: copies: 2 + 2
B10: Fv4-F1382 (antibody, human IgG1, kappa)
heavy: B1 heavy with D235E, Y236L, D240P, G273P, A328K, K332A, S428K, M430L, N436S, E441K
light: DIQMTQSPSSLSASVGDSVTITCQASTDISSHLNWYQQKPGKAPELLIYYGSHLLSGVPSRFSGSGSGTDFTFTISSLEAEDAATYYCGQGNRLPYTFGQGTKVEIERTVAAPSVFIFPPSDEQLKSGTASVVCLLNNFYPREAKVQWKVDNALQSGNSQESVTEQDSKDSTYSLSSTLTLSKADYEKHKVYACEVTHQGLSSPVTKSFNRGEC
notes: Variant of Fv4-LS; copies: 2 + 2
B11: IL6R-BP211/IL6R-L (antibody, human IgG1, kappa)
heavy: B1 heavy with Y236L, H270D, K332R
light: not shown
notes: copies: 2 + 2
B12: IL6R-BP120/IL6R-L (antibody, human IgG1, kappa)
heavy: B1 heavy with D235E, Y236L, G273P, A328E, K332A
light: not shown
notes: IgG1 type
B13: IL6R-BP213/IL6R-L (antibody, human IgG1, kappa)
heavy: B1 heavy with Y236L, H270D, A328K, K332R
light: not shown
notes: copies: 2 + 2
B14: Fv4-F1380 (antibody, human IgG1, kappa)
heavy: B1 heavy with D235E, Y236L, D240P, G273P, A328K, K332A, S428D, M430L, N436S, E441K
light: B10 light
notes: as for B10
B15: IL6R-BP117/IL6R-L (antibody, human IgG1, kappa)
heavy: B1 heavy with D235E, Y236L, G273P, A328D, K332A
light: not shown
notes: IgG1 type
B16: Fv4-F1383 (antibody, human IgG1, kappa)
heavy: B1 heavy with D235E, Y236L, D240P, G273P, A328K, K332A, S428R, M430L, N436S, E441K
light: B10 light
notes: as for B10
B17: IL6R-BP116/IL6R-L (antibody, human IgG1, kappa)
heavy: B1 heavy with D235E, Y236L, G273P, A328T, K332A
light: not shown
notes: IgG1 type
B18: IL6R-BP205/IL6R-L (antibody, human IgG1, kappa)
heavy: B1 heavy with Y236L, Y298D, A328K, K332R
light: not shown
notes: copies: 2 + 2
B19: IL6R-BP126/IL6R-L (antibody, human IgG1, kappa)
heavy: B1 heavy with D235E, Y236L, G273P, A328L, K332A
light: not shown
notes: IgG1 type
B20: IL6R-BP188/IL6R-L (antibody, human IgG1, kappa)
heavy: B1 heavy with Y236L, G239D, H270D, A328K
light: not shown
notes: copies: 2 + 2
B21: IL6R-BP100/IL6R-L (antibody, human IgG1, kappa)
heavy: B1 heavy with D235E, Y236L, S269A, G273P, A328K, K332A
light: not shown
notes: IgG1 type
B22: IL6R-BP204/IL6R-L (antibody, human IgG1, kappa)
heavy: B1 heavy with Y236L, K332R
light: not shown
notes: copies: 2 + 2
B23: Fv4-F1381 (antibody, human IgG1, kappa)
heavy: B1 heavy with D235E, Y236L, D240P, G273P, A328K, K332A, S428E, M430L, N436S, E441K
light: B10 light
notes: as for B10
B24: IL6R-BP197/IL6R-L (antibody, human IgG1, kappa)
heavy: B1 heavy with G239D, H270D, Y298D, A328D
light: not shown
notes: copies: 2 + 2
B25: IL6R-BP207/IL6R-L (antibody, human IgG1, kappa)
heavy: B1 heavy with Y236L, G273P, A328K, K332R
light: not shown
notes: copies: 2 + 2
B26: IL6R-BP118/IL6R-L (antibody, human IgG1, kappa)
heavy: B1 heavy with D235E, Y236L, G273P, A328S, K332A
light: not shown
notes: IgG1 type
B27: IL6R-BP078/IL6R-L (antibody, human IgG1, kappa)
heavy: B1 heavy with D235E, Y236L, G273P, A328K, K332M
light: not shown
notes: IgG1 type
B28: IL6R-BP911/IL6R-L (antibody, human IgG1, kappa)
heavy: B1 heavy with D235E, Y236L, G273P, A328K
light: not shown
notes: IgG1 type
B29: IL6R-BP190/IL6R-L (antibody, human IgG1, kappa)
heavy: B1 heavy with D235E, Y236L, G239D, H270D, A328K
light: not shown
notes: copies: 2 + 2
B30: IL6R-BP196/IL6R-L (antibody, human IgG1, kappa)
heavy: B1 heavy with D235E, H270D
light: not shown
notes: copies: 2 + 2

Tests used:
[1] = target: T1, human FcγRIIa type R (allotype R131) …; assay: SPR (Biacore), antibody captured, FcγR analyte
[2] = target: T7, human FcγRIIIa type V (allotype V158) extracellular domain with C-terminal His tag (human, UniProt P08637 17-208); assay: SPR (Biacore), antibody captured, FcγR analyte
T7 construct: extracellular domain; also called FcγRIIIaV; FcγRIIIa V type; not shown: His tag at the C terminus

[3] = target: T8, human FcγRIa extracellular domain with C-terminal His tag (human, UniProt P12314 16-292); assay: SPR (Biacore)
T8 construct: extracellular domain

[4] = target: T2, human FcγRIIa type R extracellular …; assay: SPR (Biacore)
[5] = target: T3, human FcγRIIa type H extracellular …; assay: SPR (Biacore)
[6] = target: T4, human FcγRIIb extracellular domain with …; assay: SPR (Biacore)
[7] = target: T4, human FcγRIIb extracellular domain with …; assay: SPR (Biacore), ratio of KDs
[8] = target: T2, human FcγRIIa type R extracellular …; assay: SPR (Biacore), parent IL6R-B3/IL6R-L
[9] = target: T4, human FcγRIIb extracellular domain with …; assay: SPR (Biacore), parent IL6R-B3/IL6R-L
[10] = target: T5, human FcγRIIa type R extracellular …; assay: SPR (Biacore), antibody captured, FcγR as analyte
[11] = target: T6, human FcγRIIb extracellular domain with …; assay: SPR (Biacore), antibody captured, FcγR as analyte
[12] = target: T9, human FcRn (human, UniProt P55899 24-297; P61769 21-119); assay: binding to FcRn at pH 6.0; method not stated
T9 construct: the construct is not described
T9 sequence (P55899 24-297 limits assumed, chain 1 of 2): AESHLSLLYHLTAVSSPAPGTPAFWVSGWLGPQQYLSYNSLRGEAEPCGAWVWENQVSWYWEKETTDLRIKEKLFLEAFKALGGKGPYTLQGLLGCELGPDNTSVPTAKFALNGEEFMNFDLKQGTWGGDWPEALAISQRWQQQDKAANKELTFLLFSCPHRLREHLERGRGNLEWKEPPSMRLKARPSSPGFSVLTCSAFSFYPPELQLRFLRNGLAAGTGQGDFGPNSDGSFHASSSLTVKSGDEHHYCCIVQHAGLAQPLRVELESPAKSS
T9 sequence (P61769 21-119 limits assumed, chain 2 of 2): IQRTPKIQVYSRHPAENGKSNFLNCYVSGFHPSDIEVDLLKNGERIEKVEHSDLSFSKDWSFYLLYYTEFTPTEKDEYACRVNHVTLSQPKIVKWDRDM

T7 sequence (P08637 17-208 F176V): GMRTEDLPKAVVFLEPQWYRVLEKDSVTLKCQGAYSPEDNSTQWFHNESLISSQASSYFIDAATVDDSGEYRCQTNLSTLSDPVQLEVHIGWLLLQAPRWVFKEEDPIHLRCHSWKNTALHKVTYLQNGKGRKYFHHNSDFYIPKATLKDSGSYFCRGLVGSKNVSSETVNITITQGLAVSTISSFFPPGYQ
T8 sequence (P12314 16-292): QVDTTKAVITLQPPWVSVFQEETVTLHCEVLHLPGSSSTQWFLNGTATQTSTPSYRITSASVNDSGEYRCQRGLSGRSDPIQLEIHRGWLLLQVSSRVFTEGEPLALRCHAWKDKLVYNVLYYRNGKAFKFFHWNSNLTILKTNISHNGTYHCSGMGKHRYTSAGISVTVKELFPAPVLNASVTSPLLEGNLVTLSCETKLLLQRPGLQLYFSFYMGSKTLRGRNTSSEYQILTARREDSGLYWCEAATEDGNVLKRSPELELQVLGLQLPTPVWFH

Binder	Kd [2]	Kd [10]	KD(IIb) of parent polypeptide/KD(IIb) of altered polypeptide [11]	other results
B1	56 µM	–	–	Kd [1]: 2.6 µM
B2	–	–	–	Kd [3]: 0.0022 µM; Kd [4]: 0.074 µM; Kd [5]: 1.6 µM; Kd [6]: 0.0019 µM; KD(IIaH)/KD(IIb) [7]: 865; KD(IIaR)/KD(IIb) [7]: 40.1; KD(IIaR) parent/KD(IIaR) altered polypeptide [8]: 14.8; KD(IIb) parent/KD(IIb) altered polypeptide [9]: 1680
B3	–	8.4 µM	3.4 fold vs IL6R-B3/IL6R-L	Kd [11]: 0.9 µM
B4	–	16 µM	2.9 fold vs IL6R-B3/IL6R-L	–
B5	–	12 µM	3.3 fold vs IL6R-B3/IL6R-L	–
B6	–	–	–	Kd [1]: 1 µM
B7	–	–	–	Kd [1]: 0.96 µM
B8	–	11 µM	2.5 fold vs IL6R-B3/IL6R-L	–
B9	61 µM	–	–	–
B10	–	–	–	Kd [12]: 0.13 µM
B11	73 µM	–	–	Kd [1]: 4.1 µM
B12	–	9.6 µM	3 fold vs IL6R-B3/IL6R-L	Kd [11]: 1 µM
B13	63 µM	–	–	–
B14	–	–	–	Kd [12]: 0.073 µM
B15	–	9.2 µM	3.9 fold vs IL6R-B3/IL6R-L	Kd [11]: 0.8 µM
B16	–	–	–	Kd [12]: 0.16 µM
B17	–	15 µM	2.8 fold vs IL6R-B3/IL6R-L	–
B18	68 µM	–	–	–
B19	–	11 µM	2.2 fold vs IL6R-B3/IL6R-L	–
B20	–	–	–	Kd [1]: 1 µM
B21	–	7.8 µM	2.9 fold vs IL6R-B3/IL6R-L	–
B22	–	–	–	Kd [1]: 4.5 µM
B23	–	–	–	Kd [12]: 0.086 µM
B24	33 µM	–	–	Kd [1]: 0.98 µM
B25	65 µM	–	–	–
B26	–	15 µM	2.7 fold vs IL6R-B3/IL6R-L	–
B27	–	15 µM	2.8 fold vs IL6R-B3/IL6R-L	–
B28	–	16 µM	3.5 fold vs IL6R-B3/IL6R-L	–
B29	45 µM	–	–	–
B30	51 µM	–	–	Kd [1]: 3 µM
